# From doi:10.1101/2020.04.15.043133
# Read-outs that look alike come from different tables or passages of the source.
# Key:
# [1] = biological target: CR3 headpiece fragment (integrin αMβ2 headpiece) (human) (UniProt P11215); assay: SEC
# [2] = biological target: iC3b biotinylated on the thioester cysteine (UniProt P01024); assay: SPR
# [3] = biological target: iC3b biotinylated on the thioester cysteine (UniProt P01024); assay: SPR; remark: listed apart in the source
# [4] = biological target: C3d (human) (UniProt P01024); assay: SPR
substance,measurement,setting,value
CR3 headpiece fragment (integrin αMβ2 headpiece) (from UniProt P11215 17-773; P05107 23-504) (receptor),stoichiometry N,[1],2
same,Kd,[2],0.0062 µM
same,fold lower koff than in the Mg2+ buffer,[2],30 fold
same,Kd,[3],0.03 µM
same,Kd,[4],0.515 µM
